Results from article PMC8959893, “T-Cell Responses to Immunodominant Listeria Epitopes Limit Vaccine-Directed Responses to the Colorectal Cancer Antigen, Guanylyl Cyclase C” (Frontiers in Immunology, 2022).

Molecular target: T1, peptide-H-2K^d complex (Mus musculus, UniProt P01902)
T1 construct: expressed in transfected cells; host or cells: RMA-S (TAP-deficient), stably expressing H-2K^d; provided by Dr. Sean Murphy (University of Washington)
T1 sequence (P01902 22-368): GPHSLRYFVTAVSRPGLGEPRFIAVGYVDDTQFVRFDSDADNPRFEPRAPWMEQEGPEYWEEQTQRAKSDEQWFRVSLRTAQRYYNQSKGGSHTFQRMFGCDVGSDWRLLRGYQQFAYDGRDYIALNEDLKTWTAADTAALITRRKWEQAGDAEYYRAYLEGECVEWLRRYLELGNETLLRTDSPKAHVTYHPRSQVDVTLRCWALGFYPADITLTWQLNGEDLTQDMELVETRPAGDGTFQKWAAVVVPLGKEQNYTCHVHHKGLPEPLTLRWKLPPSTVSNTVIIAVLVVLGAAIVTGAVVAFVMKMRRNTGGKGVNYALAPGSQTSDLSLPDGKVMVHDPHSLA
T1 sequence (P01887 21-119 partner): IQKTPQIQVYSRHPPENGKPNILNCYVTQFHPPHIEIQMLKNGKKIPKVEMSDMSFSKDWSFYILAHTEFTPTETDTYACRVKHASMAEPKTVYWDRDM
Format: cell-based
Conditions: for half-life (t1/2) of peptide-H-2K^d complex: Figure 4D, flow cytometry MFI, nonlinear regression of two experiments
Description: As previously described ([27]), RMA-S-H-2K^d cells were incubated overnight at 26°C with 30 ug/mL of each peptide. In the morning, cells were incubated 2 h at 37°C, washed 3x with PBS to remove unbound peptide, and incubated an additional 2, 4, or 6 h at 37°C. Cells were then stained with anti-H-2K^d-PE antibody (Invitrogen, Clone SF1-1.1.1), and surface H-2K^d was quantified as mean fluorescence intensity (MFI) by flow cytometry. The percent change in surface peptide-H-2K^d complexes was calculated using the formula, MFI^peptide−MFI^no peptide/MFI^0 hrs−MFI^no peptide×100 ([28]). The t1/2 for the peptide-MHC complex was calculated by nonlinear regression.

[1] = RMA-S-H-2K^d cells, 30 ug/mL peptide overnight at 26°C, 2 h at 37°C, washed, additional 2, 4 or 6 h at 37°C

Substance	half-life (t1/2) of peptide-H-2K^d complex [1]	Dissociation from MHC, fold faster than Lm-derived peptide-H-2K^d complexes (Figure 3, stated in Discussion)	t1/2 of peptide-H-2K^d complex (Figure 3C, RMA-S-H-2K^d cells, 30 ug/mL peptide overnight at 26°C, 2 h at 37°C, washed, additional 2, 4 or 6 h at 37°C, anti-H-2K^d-PE MFI by flow cytometry, nonlinear regression, representative of two experiments)
GUCY2CL262I: GUCY2C254-262 peptide variant with L262I point mutation at an H-2K^d anchoring residue (SFYDVKGDI; UniProt Q3UWA6 254-262, looked up, variant L262I)	1.0 h		
GUCY2CF255Y: GUCY2C254-262 peptide variant with F255Y point mutation at an H-2K^d anchoring residue (SYYDVKGDL; UniProt Q3UWA6 254-262, looked up, variant F255Y)	8.3 h		
GUCY2C254-262: dominant H-2K^d-restricted CD8+ T-cell epitope of mouse guanylyl cyclase C, residues 254-262 (SFYDVKGDL; UniProt Q3UWA6 254-262, looked up, fragment)	2.1 h	> 5 fold	1.8 h
